This note sets out measurements from patent publication US20110236411A1.

In this assay the target is purified folded MHC-complex (Example 34, allele and peptide not stated). As to the kind of experiment: sandwich ELISA, W6/32 coated, HRP rabbit anti-β2m detection. For orientation: In an ELISA, binding on a coated surface is turned into a signal by an enzyme label.

Substance “W6/32 mouse-anti-HLA-ABC antibody (Dako M0736)” yielded a fold of OD450 against the negative control β2m greater than 6 fold.
